For test [1], the target named is US28 wild type, G protein-coupled receptor of human cytomegalovirus strain VHL/E (human cytomegalovirus strain VHL/E). The experiment in a line: competition of unlabeled CCL5 against 125I-CCL5 on US28.
Test [2] has the same target. Kind of test: cell-based or functional assay.
Test [3] shares this target. The experiment in a line: displacement of 125I-CCL5 from US28-expressing HEK293T membranes by unlabeled CCL5.

human chemokine CCL5, sequence (P13501 24-91 limits assumed): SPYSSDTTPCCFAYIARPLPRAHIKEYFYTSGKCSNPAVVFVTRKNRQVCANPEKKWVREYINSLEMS

Turning to “human chemokine CCL5 (from UniProt P13501 24-91) (ligand)”, the IC50 (read off the curve) in test [1] came out at 1 nM; in test [3], 3 nM. Also, the CCL5-induced accumulation of inositol phosphates (EC80) in test [2] came out at 31.6 nM.

These data come from patent US12037382.
